Measurements as given in patent publication US7645449B2, “Sensitizing cells for apoptosis by selectively blocking cytokines” (priority 2003, dated 2010).

Key:
[1] = test system: Bcl-XL and cFlip/FLAME-1 in LNCap prostate cancer cells; assay: Immunoblot of Bcl-XL and cFlip/FLAME-1 in LNCaP cells; type: cell-based, human; details: following IL-4 treatment
Experimental: The observation that prostate and breast tumor cells treated with IL-4 display a reduced sensitivity to death induced by CD95 and chemotherapeutic drugs led us to investigate whether this cytokine would influence the expression of apoptosis regulatory genes. […] Therefore, IL-4-mediated increased survival in bladder, prostate and breast cancer cells is associated with upregulation of anti-apoptotic proteins.
Cell pellets were washed twice with cold PBS and lysed on ice for 30 minutes with 1% NP40 lysis buffer (20 mM Tris-HCl pH 7.2, 200 mM NaCl, 1% NP40) in the presence of 1 mM phenylmethylsulphonyl fluoride (PMSF) and 2 μg/ml each of aprotinin, leupeptin and pepstatin. Cell debris was removed by centrifugation at 13,000 rpm for 10 minutes at 4° C. Lysate concentration was determined using the Bio-Rad protein assay (Bio-Rad Laboratories, Richmond, Calif.). Aliquots of cell extracts containing 30 μg of total protein were resolved on 10% or 12% SDS-PAGE and transferred to a Hybond-C extra nitrocellulose membrane (Amersham Pharmacia Biotech, Piscataway, N.J.). […]

[2] = test system: Bcl-xL and Bcl-2 in normal thyrocytes; assay: Immunoblot of Bcl-xL and Bcl-2 in normal thyrocytes cultured with cytokines; type: cell-based, human; details: after 48 hours of culture; IL-4 20 ng/ml, IL-10 40 ng/ml, IFN-γ 1000 IU/ml
Experimental: Thyroid cell purification and culture. Thyroid tissues from normal, PTC, FTC and UTC were digested for 2 hours with collagenase (1.5 mg/ml) (Gibco BRL, Grand Island, N.Y.) and hyaluronidase (20 μg/ml) (Sigma Chemical Co., St. Louis, Mo.) in DMEM. Thyrocytes were purified from the digested tissues by hematopoietic cell depletion with anti-CD45-coupled beads (Dynal, Wirral Merseyside, U.K.) and 12 hours of flask adherence, which allowed removal of other cells. After additional 12 hours of culture, thyroid cells were allowed to grow in monolayer for the immunocytochemistry or detached with trypsin+EDTA following exposure to cytokines or chemotherapeutic agents for functional and protein analyses. Thyrocytes were cultured in standard DMEM with 10% heat-inactivated FBS (Hyclone Laboratories, Logan, UK) in the presence or absence of human recombinant IL-4 (20 ng/ml), IL-10 (40 ng/ml) or IFN-γ (1000 IU/ml) (uroclone, Paignton, UK) and cisplatin (300 ng/ml), doxorubicin (5 μM) and taxol (5 μM) (Sigma) or TRAIL (Alexis, San Diego, USA). For the IL-4 and IL-10 neutralization, thyroid cancer cells were pretreated, for 48 hours, with anti-human IL-4 and IL-10 neutralizing antibodies (1 μg/ml) (R&D systems, MN, USA).
Protein isolation and Western Blotting. Cell pellets were resuspended in ice-cold NP-40 lysis buffer (50 mM Tris-HCl, pH 7.5, 150 mM NaCl, 1 mM EGTA, 1% NP-40) containing 1 mM PMSF, leupeptin (1 μg/ml), pepstatin (1 μg/ml) and aprotirni (1 μg/ml). Each lysate (30 μg) was fractioned on 12% SDS-polyacrylamide gels and blotted to nitrocellulose (Hybond, Amersham, Little Chalfont Buckinghamshire England, UK). Membrane was blocked for 1 h with nonfat dry milk in TBS containing 0.05% Tween 20 and successively incubated for 2 h with Abs specific to actin (Ab-1, mouse IgM, Calbiochem, Darmstadt, Germany), Bcl-2 (124, mouse IgG1, Upstate Biotechnology Inc.), Bcl-xL (H-5, mouse IgGl, Santa Cniz Biotechnology), IL-4 (3007.11, mouse IgG1, R&D Systems, Inc., Minneapolis, USA), IL-10 (23738.111, mouse IgG2b, R&D Systems), IFN-γ (25718.111, mouse IgG2a, R&D Systems). […]

B1: IL-4: human recombinant IL-4 (protein, UniProt P05112 25-153, looked up)
Interleukin-4: HKCDITLQEIIKTLNSLTEQKTLCTELTVTDIFAASKNTTEKETFCRAATVLRQFYSHHEKDTRCLGATAQQFHRHKQLIRFLKRLDRNLWGLAGLNSCPVKEANQSTLENFLERLKTIMREKYSKCSS
levels of Bcl-XL and cFlip/FLAME-1 in LNCap cells [1]: considerably upregulated | Bcl-xL and Bcl-2 expression in normal thyrocytes [2]: upregulated
